Experimental data as given in the DeepSol protein solubility set.

Experiment: soluble on expression in E. coli; label from the status in PepcDB or PDB records
With “MPADRVAFPPTLIGIELDPRQGLSKQLYEILRRQILDGRLSSGMRLPASRDLAKSLAISRNSVMRAFDQLYAEGFIEGRVGDGTYVAQLAGRHAALQRNAPGKLSTNLPTGLHTGLCTGLSTFAVENTQNLLNQVIHNPALQRVEKHHLNEPPDDRPKAFRVGVPAFDLFPFALWGKLYASFWRKPNLDQLGYGAAAGEWRLRELVAAYLRSSRGLGCTAEQIVITSGAQHAISLCAQLLVTPGEGVAVENPGYRAAGHAFALAGARLQGVAVDSEGMRCADLEQTDCRLAYVTPSHQYPTGVVMSLARRLELLAWAEKNQSWIVEDDYDGEYRYSGSPLAPLAALDQNGRVLYVGTFGKIVFPALRLGYLVLPEHLVRPFSQRKAVDMRHTEIGVQAVMAQFIAQGHFQRHIRRMRRAALSRRDALLAGWPDNVPGCAAMPKVVAGLHVMVKVDSVAREQALIAKARSVGVEMSPLSGYWLSDSDEPVDNRAGLVLGFAAVPEPAIADALNRLRMVWSE” the “soluble on expression in E. coli” value was “not soluble”. For “MSSSVLSVAKFDLKKMKTVYLKVDMEYDNRKNAALAILSKLSRDLLKICSNFGGCLARPQRDLCTIMLIIDSDKLENEHLVKHLKEHHMTAFEYIFTKKIKIQIGECFVQDGFLWWKQTNLPRIRNLKFRKKFKIKNKISEIHTHCSSEGNVYIKFSAEMIRIHPFDHWILDSDERFHDFNSGPISRRIRPRWVSCLPKLGKGRIVKIHRKIPETAPFESYDQMKSYWKKTKYEFVFQYGYDLPPSEPEVYYDVLFHNGETMLYPLYCVLTGTPEVLENRVGKTMTSEALALFLKAFKEASIVICGSVLAPEDQDCQAVKAYLDVMSMSAINSSKLKKEEKVTRKSSGGGHEEHQKPYEIRKIYPKIPVGVKRSISSSSQSGLPIVKKARPGFSVSVD”, the “soluble on expression in E. coli” value was “not soluble”. In the case of “MSLNAPSNAPWLSHYDEGIPSSLAPYPRVTLPDILREAARKHPEDPALLFLGNTISYGELERESNAFAAALHASEVRKGNRVAVLLPNSPQMIIAEFGIWKAGGIAVMLNPLWTEHELERAIDECEAEIAVVLAPFYEKINHLRSRTSLKTVVITDLHDYFPAAMRNASPANGAVATMLQSSDLRMPAMIESYSGSQTPAVEVSPKDPALFIFSGGTTGKPKCAIGRHEASVMNGMQVDAWFRPVLGSDRVPVMLNLPLHHVYPQVAIIGYGFVTRSPLVLIPDPRDFELLIKTIKQYKVGLLPGIPTLFNALAAHPLLKEAPGSLDSLKLIISAAAPLHNKTRRRFKELTGATIIDAYGLTEAMVSPVCQPLNGIRKNGSVGLPVPDVEMRIVDADTGIEVLPSMEIGEIVIRSPQLMTGYWKNPEETAEVLRDGWLYTGDLGYIDDDGYLYIVDRKKDVIKPSGFQVWPSEVEEVIAMHPAVLETGVAGVPDDYQSEAVKAWVVLHKGHSLDAEQLKNWCRQTLAPYKVPKHIEFCEQLPKSALGKVLRQALVEQHLTSEGHHHHHH”, the “soluble on expression in E. coli” value is reported as “soluble”. With “MLGRALRPGWLGITRTVVKKPSCGSYFNRTFQTAINTTMPPMQEGMLSTMMMMTATATRITGTVSEPLNGSNIVMQLDSVMRKRKKKMKKHKLRKRRKREKAERRKLSQGR” the “soluble on expression in E. coli” value was “soluble”. For “MAHHHHHHMYLHVMKVACTPDERHCENSVNPSSSSTLPSATTSSSCPVEHGVPDEESRFTRLYEAAVENESALRVGNYTRRLLFDEFCATSDATRQASQPTCRMLRQRHPALRSLSLSVEGMHSAGADRTSATQLPADSTMSAAESLQAYLSPALSAWRCASQEPFASSAQVAAAAPLPTSAVASDVRPRSPLPLHIDESDAPVDEGAHGEGLEALYMDVFDQEGPANNHEVAVNAAYTREREAADRAALLSAQQATMAGCPCGFTARGSTPSADVSLSNASSLLPEEDDISLVLQPVLGGVAQRRGRGIRVHLESEPSVTTSSSMVDASFLQAGRETTTLTCAVCELSGVVGDPHRTCIDAVELQEEDELHPCGTCGALVHSYCACPGTTADTHYCCNPCCPGGGTV”, the “soluble on expression in E. coli” value was “not soluble”. With “MSNSTEPALAIITVTYSPGKHLGAFLSSVKEATAQPTYVVLADNGSVDGVPEAAAQADPSVEFFPTGGNIGYGSAINAAVRKLAPLRESGKINAEFFVLSNPDVVFEPGSIDAMVQCASRHPQAADIGPYIRQSDGSAYPSARQVPTIKNGVGHALFSSVWPSNPWSRAYRDNRDMTTERTAGWLSGSCLLVRWDAFEQIGGFDERYFMYMEDVDLGDRFGRAGFDNVFCPDAVITHAVGHAAGKHPEKMLPAHHDSAYRFQADRHPGLRYLPLRVLLRVGLKLRAVVAVAAAKFKLEHHHHHH” the “soluble on expression in E. coli” value was “soluble”. With “MSLEEYNLIKPSHCKCQIVELEDIYRRDLNLLVALRVLIEESSVSKAATRLNLSQSAMSRVLGRLRDLLGDPLFTRQGQHLIPTQKALEIDRSLGEPLESLRQLLSPVEFDPQQCDQTFTIATTDYAMQTILPFALPRIYQEAPNVSFNFLPLQHDRLSDQLTYEGADLAICRPTGPVEPLRSEILGRVGVLCLLSKQHPLANQEMSLDDYLSHPHAMIAISDGVKALIEQALIDKPQRKMVLRAYHLEAALAIVDTLPIIITVPADLAYLVAERYDLVVKPLPFQFTPFDYSMIWHARCEHSPAQEWLRSVVREECSRLIAKRIEDMGLNEGHHHHHH” the “soluble on expression in E. coli” value was “soluble”. With “TNLISVNSRSYRLSSAPTIVICVDGCEQEYINQAIQAGQAPFLAELTGFGTVLTGDCVVPSFTNPNNLSIVTGAPPSVHGICGNFFFDQETQEEVLMNDAKYLRAPTILAEMAKAGQLVAVVTAKDKLRNLLGHQLKGICFSAEKADQVNLEEHGVENILARVGMPVPSVYSADLSEFVFAAGLSLLTNERPDFMYLSTTDYVQHKHAPGTPEANAFYAMMDSYFKRYHEQGAIVAITADHGMNAKTDAIGRPNILFLQDLLDAQYGAQRTRVLLPITDPYVVHHGALGSYATVYLRDAVPQRDAIDFLAGIAGVEAVLTRSQACQRFELPEDRIGDLVVLGERLTVLGSAADKHDLSGLTVPLRSHGGVSEQKVPLIFNRKLVGLDSPGRLRNFDIIDLALNHLA” the “soluble on expression in E. coli” value was “soluble”. In the case of “MEKLINRVGPNGESRAQAVTSDQEKRLLHQLREITRVMKEGKFIDTSPEKEAEEAPYMEDWEGYPEETYPIYDLSDGIKRRQETILVDYPDLKEPSAEEIAEQMGEIEEEGSERLSWDHLPTDPGAQKDNSVAPCDPKPESCSCCVHEEEDPAVLAENAGFSADGYSEQEEATKENLPQDFTNEGLGVSTDNAHVGGMLRKRNPQGFE”, the “soluble on expression in E. coli” value is reported as “not soluble”. In the case of “GAMAATAAEAVASGSGEPREEAGALGPAWDESQLRSYSFPTRPIPRLSQSDPRAEELIENEEPVVLTDTNLVYPALKWDLEYLQENIGNGDFSVYSASTHKFLYYDEKKMANFQNFKPRSNREEMKFHEFVEKLQDIQQRGGEERLYLQQTLNDTVGRKIVMDFLGFNWNWINKQQGKRGWGQLTSNLLLIGMEGNVTPAHYDEQQNFFAQIKGYKRCILFPPDQFECLYPYPVHHPCDRQSQVDFDNPDYERFPNFQNVVGYETVVGPGDVLYIPMYWWHHIESLLNGGITITVNFWYKGAPTPKRIEYPLKAHQKVAIMRNIEKMLGEALGNPQEVGPLLNTMIKGRYN”, the “soluble on expression in E. coli” value is reported as “soluble”. With “MTQDYRVLLYYQYVPIEDGETFAQKHLADCKELGLKGRILVADEGINGTVSGTIEQTNAYMELMKNDPRFSSTIFKIDEAEQNAFKKMHVRYRPELVNLSLEDDVNPLELTGAYLDPKEFREAMLDENTVVIDARNDYEFDLGHFRGAIRPEIRSFRELPQWIRDNKEQFMEKRVLTYCTGGIRCEKFSGWLVREGFKDVGQLHGGIATYGKDPEVQGDLWDGQMYVFDSRIAVPINQKEHVIVGRDWFDGSPCERYINCGNPECNRQMLASEENEAKYLGACSHECRVHPNNRYIKAHQLSNQEVQERLALLEKDLASLEHHHHHH” the “soluble on expression in E. coli” value was “soluble”. In the case of “MGEPVILEAVRTPIGKRNGALRAYRPDALYAKVLDALLERTGIDPGLIGDVVTGCVTQVGEQGANVGRLGVLLSRLPKEVPAVSLNRMCGSSQQAVHFAAQAIAAGDVDFAIAGGVESMTRVPMFADIGGGFHTLNPELGKRYELVHQGESAERIAERYGFCREELDEWGYLSHKRAARATEEGRFSAQILPLEGLDAEGRPFLLTRDEGVRPDVDYEKMLALKPVFREDGVVTAGNSSQISDGAAALLLGDREKALALGLRPRARFLARVVVAGDPTLQLLEVIPAAKKALERAGLSLRDVDVIEVNEAFASVVLAFLRELGADPEKVNPNGGAIAHGHPLGATGAVLMTKLLYELERTGSEFGLQVMCIGHGQATATVIQRL”, the “soluble on expression in E. coli” value is reported as “soluble”. In the case of “MEMILEEKDASDWIYRGEGGANLVLAYAGSSPLFVGKVIRIQKARRNDKAIKNANGVVSVLTSDEQHLWRENNELISSPNKEVLEQRYVKNVIIPLLGPKHVDAGVRVSVSKEFLECVDKKVTKQRPLWRVNAANVDTSHDSALILNDHSLFSQGISSGGDCISVEIKPKCGFLPTSRFIGKENMLKTSVSRFKMHQLLKLEYNEISAASAYDPLDLFSGSKESVLEAIKALYSTPQNNFRVFLNGSLILGGSGESTGRTSPEIGYAFEDALKGFIQSEDGHRTECFLQLVSDAVYGSGVLDRLLEIQKLDKLDIEGAIHSYYDLINQPCPICKEGKPLEAELSLHALPLDESLKIVKEYLIAATAKDCSIMISFQSRNAWDSEPSGDYVSLKPTNQTFDYKVHFIDLSLKPLKRMESYYKLDKKIISFYNRKQKAENTAEQIGNSKPSHS”, the “soluble on expression in E. coli” value is reported as “soluble”. In the case of “MSSNLQLVETFDSRQFVVARWNRNDTTAMVPSAIAVVVFVESVEYKLGCKEKIGYSPTPEDQDQFMILQMESIDEANRICHDSIAKGFAINNTKIVFTPLLGLNGFRLQDAIDFMKTSQPHFNNDELLEVLTMAICQELPERLKILEDGFSFIEQGVSELIQNSACEMFGSFASPVRRNGYSDIDINVESVSAPGQRVSTNVRPLNEVVANPKCLITHPLTKSELETYPQEEIIKILYRCFNENSAFKTKFEMRFLPARTPIIVFKNIEVEGMNVSYDLSVHNQISVEKASLLHEFIVKDKSKGSRMKNAMMFIVHWAKSNKLLSGDYPEEKLEVKTKLNSYIINQLVIHFVQAATNKVHVNPQAKRDSRVNEYNFDTLFGDYCKFFRELFKYYANFDFTNKAIYGKKAMQKKTLSSAHGGVEESPLMLMDPMDITHNISAKVTEDAVKLLNGLIRNALFILKQNHFHINYLLETNTMATMLMKSREPKISISTRVTDGAEHQYLSVQLPAVVITSSDLFLLLTRVLRFNVCPNEQGPSVVDLCTPTGAIFLVTSRAWVGRRNTKRALKNSRHDLTPLQIDVMCSDKYDYEEDIAELRISMSTVPGTRIRLACIDIMRGQVSEVRDAIHFLIDQFINNNYDDLEKNGVQTISRIPIAAPTWP”, the “soluble on expression in E. coli” value is reported as “not soluble”. With “MKIAVVTESSANLKAQAVKDYQITVVNDPIMFGNHVYHENVDITTDQFYRLLKVEKEIPTISQISMPEMQVVFDQLQAAGYDQILVIGLSSGISGWINNLKTYAPSVDGIDVRVFDSRTACAGTANMVKLAAAMALADYTLDEIIAQLTRLRAATTTVLIVNSMRHLVKNGRIYNNSSLAGTMVLRNKPIITFNGHGKIQLLGKERTLKNAQQAVQDEFSQFVMNSQLPVRLDVISANDARIAEDWASELRYQFPAVRVKTGVIGPVLGVLTGDHALGMIWSLDWKPLLTTLNQEQKQ” the “soluble on expression in E. coli” value was “not soluble”. With “MGSDKIHHHHHHMDILRKVAEIHGTPTYVYFEETLRKRSRLVKEVFEGVNLLPTFAVKANNNPVLLKILREEGFGMDVVTKGELLAAKLAGVPSHTVVWNGNGKSRDQMEHFLREDVRIVNVDSFEEMEIWRELNPEGVEYFIRVNPEVDAKTHPHISTGLKKHKFGIPLEDLDSFMERFRSMNIRGLHVHIGSQITRVEPFVEAFSKVVRASERYGFEEINIGGGWGINYSGEELDLSSYREKVVPDLKRFKRVIVEIGRYIVAPSGYLLLRVVLVKRRHNKAFVVVDGGMNVLIRPALYSAYHRIFVLGKQGKEMRADVVGPLCESGDVIAYDRELPEVEPGDIIAVENAGAYGYTMSNNYNSTTRPAEVLVRENGRISLIRRRETEMDIFKDVVM” the “soluble on expression in E. coli” value was “not soluble”.
